Literature values as cited in publication PMC10188253 (Molecular pharmaceutics, 2022).
Read-outs that look alike come from different tables or passages of the source.

Tested on: B16/F10 melanoma
Conditions: ref [25]

**Q.** For ^64Cu-CB-TE1A1P-PEG4-LLP2A, which B16/F10 melanoma uptake (2 h post-injection) is on record?
**A.** 15.1 ± 1.0 % ID/g

**Q.** What about the “VLA-4-specific uptake in normal lung, bone and spleen” value (2 h post-injection) of the same substance?
**A.** 4.6–18.1 % ID/g

**Q.** And the B16/F10 melanoma uptake (4 h post-injection)?
**A.** 16.9 ± 2.2 % ID/g
